Patent US8273357B2, “Antigen-carbohydrate conjugates” (Massachusetts Institute of Technology, priority 2004, dated 2012)
Entries after “also recorded” stand apart in the source; their conditions may differ.

B1: (OVA)-3-1: ovalbumin modified via SMCC with nonasaccharide 3-1, average of three saccharides per OVA (conjugate)
chain: GSIGAASMEFCFDVFKELKVHHANENIFYCPIAIMSALAMVYLGAKDSTRTQINKVVRFDKLPGFGDSIEAQCGTSVNVHSSLRDILNQITKPNDVYSFSLASRLYAEERYPILPEYLQCVKELYRGGLEPINFQTAADQARELINSWVESQTNGIIRNVLQPSSVDSQTAMVLVNAIVFKGLWEKAFKDEDTQAMPFRVTEQESKPVQMMYQIGLFRVASMASEKMKILELPFASGTMSMLVLLPDEVSGLEQLESIINFEKLTEWTSSNVMEERKIKVYLPRMKMEEKYNLTSVLMAMGITDVFSSSANLSGISSAESLKISQAVHAAHAEINEAGREVVGSAEAGVDAASVSEEFRADHPFLFCIKHIATNAVLFFGRCVSP

Columns and labels:
[1] = target: langerin (Homo sapiens, UniProt Q9UJ71); details: solid-phase binding studies; cited from earlier work
[2] = target: T1, mannose receptor (Homo sapiens, UniProt P22897); details: cited from earlier work
T1 sequence (P22897 19-1456): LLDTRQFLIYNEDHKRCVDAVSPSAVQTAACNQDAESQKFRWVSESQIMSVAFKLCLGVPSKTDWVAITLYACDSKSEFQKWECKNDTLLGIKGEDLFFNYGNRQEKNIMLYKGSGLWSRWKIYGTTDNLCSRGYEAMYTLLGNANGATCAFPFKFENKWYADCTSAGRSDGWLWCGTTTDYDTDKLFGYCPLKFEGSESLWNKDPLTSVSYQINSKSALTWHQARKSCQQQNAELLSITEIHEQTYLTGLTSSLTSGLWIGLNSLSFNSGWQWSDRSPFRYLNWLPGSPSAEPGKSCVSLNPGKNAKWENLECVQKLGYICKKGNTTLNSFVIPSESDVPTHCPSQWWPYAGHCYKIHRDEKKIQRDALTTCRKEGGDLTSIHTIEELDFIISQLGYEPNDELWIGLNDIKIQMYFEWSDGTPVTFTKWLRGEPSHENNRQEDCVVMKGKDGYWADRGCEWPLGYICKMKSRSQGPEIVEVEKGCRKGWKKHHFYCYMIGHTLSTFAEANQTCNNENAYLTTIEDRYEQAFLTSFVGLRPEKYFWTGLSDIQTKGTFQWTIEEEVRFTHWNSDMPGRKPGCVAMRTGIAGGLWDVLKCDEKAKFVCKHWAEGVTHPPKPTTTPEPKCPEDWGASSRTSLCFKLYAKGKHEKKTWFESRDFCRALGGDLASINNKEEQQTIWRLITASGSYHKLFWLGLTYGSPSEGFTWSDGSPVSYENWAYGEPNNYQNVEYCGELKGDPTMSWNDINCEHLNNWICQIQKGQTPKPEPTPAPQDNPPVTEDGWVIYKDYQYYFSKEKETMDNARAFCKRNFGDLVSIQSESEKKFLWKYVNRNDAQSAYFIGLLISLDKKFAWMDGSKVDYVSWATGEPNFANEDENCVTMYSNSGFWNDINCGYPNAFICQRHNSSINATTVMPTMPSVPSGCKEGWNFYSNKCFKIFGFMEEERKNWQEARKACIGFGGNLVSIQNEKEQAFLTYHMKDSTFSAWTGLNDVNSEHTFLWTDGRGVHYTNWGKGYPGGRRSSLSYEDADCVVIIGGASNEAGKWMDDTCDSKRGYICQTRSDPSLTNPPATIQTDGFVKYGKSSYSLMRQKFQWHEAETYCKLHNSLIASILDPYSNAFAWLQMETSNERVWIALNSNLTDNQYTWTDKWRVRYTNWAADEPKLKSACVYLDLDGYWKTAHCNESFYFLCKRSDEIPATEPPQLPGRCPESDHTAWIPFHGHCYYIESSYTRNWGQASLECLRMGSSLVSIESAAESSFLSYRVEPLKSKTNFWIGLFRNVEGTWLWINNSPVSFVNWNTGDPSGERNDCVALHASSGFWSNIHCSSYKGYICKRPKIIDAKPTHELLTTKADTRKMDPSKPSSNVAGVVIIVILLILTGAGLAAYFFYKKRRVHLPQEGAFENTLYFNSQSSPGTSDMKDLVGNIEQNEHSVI

[3] = tested on: OTII T cells; assay: Adoptive transfer of OTII cells, subcutaneous immunization, FACS count of donor T cells; assay type: in vivo, mouse; details: 200 ng subcutaneous
Source text: FIGS. 6A, 6B, and 6C are a schematic diagram (FIG. 6A) and a series of flow cytometry dot plots (FIGS. 6B and 6C). FIG. 6A is a schematic diagram that illustrates the adoptive transfer technique: CD4^+CD45.2^+ ovalbumin-specific T cells are adoptively transferred to congenic CD45.1^+ recipients. After immunization the draining lymph nodes and other lymphoid organs (e.g., the spleen) are isolated. Cells from these tissues are stained with an antibody against the CD45.2 isoform and the OTII T cell receptor to identify the original donor cells. […] B6.Ly5.2/Cr mice were injected intravenously with 2×10^7 OTII splenocytes. 24 hours later the mice were injected subcutaneously with PBS, OVA (200 ng), or (OVA)-3-1 (200 ng). […] Each panel represents two or more experiments.
In order to determine the immunological implications of (OVA)-3-1 internalization and presentation by dendritic cells in vivo, the technique of adoptive transfer (FIG. 6A) was employed to track the T cell responses to DC presented antigen^15. […]
CD45.2^+ VA-specific T cells were transferred to B6.Ly5.2/Cr (CD45.1^+) recipients and, after a twenty-four hour rest period, the mice were immunized subcutaneously with PBS, OVA or (OVA)-3-1. After seventy-two hours, cells were isolated from the draining inguinal lymph nodes and counted by FACS to determine the extent of OTII cell division induced by the immunization regimen (FIG. 6B). […]

[4] = tested on: purified T cells; assay: Addition to purified T cells in the absence of antigen-presenting cells; assay type: cell-based, mouse; details: no antigen-presenting cells

Chain of langerin (Q9UJ71 whole entry, species assumed): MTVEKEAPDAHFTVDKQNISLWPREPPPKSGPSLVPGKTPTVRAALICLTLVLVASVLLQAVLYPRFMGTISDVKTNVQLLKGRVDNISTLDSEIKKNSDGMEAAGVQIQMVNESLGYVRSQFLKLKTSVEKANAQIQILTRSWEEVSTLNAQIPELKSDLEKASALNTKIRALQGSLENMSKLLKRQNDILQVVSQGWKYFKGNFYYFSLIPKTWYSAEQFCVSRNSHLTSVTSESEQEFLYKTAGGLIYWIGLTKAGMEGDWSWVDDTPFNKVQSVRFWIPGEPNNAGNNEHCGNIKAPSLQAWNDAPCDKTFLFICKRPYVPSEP

| Molecule | binding by langerin [1] | ligand for the mannose receptor [2] | total OTII cell number in the draining lymph node compared to soluble OVA ([3]; 72 h) | total OTII cell number in the spleen ([3]; 3 days) | T cell proliferation [4] |
| --- | --- | --- | --- | --- | --- |
| mBSA: BSA modified with approximately 25 mannose residues per protein molecule [reference compound] | bound by langerin | nanomolar ligand | – | – | – |
| B1 | – | – | doubling; also recorded: promotes expansion | appreciable increase | did not led to T cell proliferation |
